Where “and” joins values, the source holds several entries; their conditions need not be identical. Equal values may be shown once. Read-outs that look alike come from different tables or passages of the source.
Columns and labels:
[1] = target: the molecule itself; assay: SAXS
[2] = target: the molecule itself; assay: SAXS; remark: listed apart in the source

B1: Hepatitis B virus capsid protein assembly domain (cp149) dimer (domain or fragment)
chain: MDIDPYKEFGATVELLSFLPSDFFPSVRDLLDTAAALYRDALESPEHCSPHHTALRQAILCWGDLMTLATWVGTNLEDPASRDLVVSYVNTNVGLKFRQLLWFHISCLTFGRETVLEYLVSFGVWIRTPPAYRPPNAPILSTLPETTVV
stoichiometry N [1]: 2 | stoichiometry N [2]: 240 monomers and 180 monomers

— paper PMC7243059 (ACS nano, 2019)
